# Laboratory results: US20250281611A1 (BIOSCEPTRE AUST, published 2025)
# T1: CD19 (UniProt P15391 20-556, limits assumed)
# T1 construct: whole, on cells; also called CD19 on JeKo-1
# T1 sequence (looked up): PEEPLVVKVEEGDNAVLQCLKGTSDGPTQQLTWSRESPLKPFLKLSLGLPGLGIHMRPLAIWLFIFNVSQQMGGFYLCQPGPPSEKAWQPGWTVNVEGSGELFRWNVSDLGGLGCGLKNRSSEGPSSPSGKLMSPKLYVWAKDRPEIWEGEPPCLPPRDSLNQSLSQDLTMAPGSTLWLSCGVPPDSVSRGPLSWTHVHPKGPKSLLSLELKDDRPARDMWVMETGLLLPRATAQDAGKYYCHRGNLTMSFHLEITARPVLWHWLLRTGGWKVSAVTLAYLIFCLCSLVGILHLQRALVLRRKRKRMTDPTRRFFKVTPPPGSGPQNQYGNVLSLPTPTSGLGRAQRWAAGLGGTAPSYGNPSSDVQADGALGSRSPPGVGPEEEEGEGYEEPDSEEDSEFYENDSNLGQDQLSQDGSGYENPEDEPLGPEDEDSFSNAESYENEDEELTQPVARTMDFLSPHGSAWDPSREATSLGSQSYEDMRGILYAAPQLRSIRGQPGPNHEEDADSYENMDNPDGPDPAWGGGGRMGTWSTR
# B1: CD33 BRIDGE variant B35 (Fab)
# light: DFPGHNYTTRNILPGLNITSTFHKTSGSGKGSEPKSSDKTHTGGGGSDIQMTQSPSSLSASVGDRVTITCRASESVDNYGISFMNWFQQKPGKAPKLLIYAASNQGSGVPSRFSGSGSGTDFTLTISSLQPDDFATYYCQQSKEVPWTFGQGTKVEIKRTVAAPSVFIFPPSDEQLKSGTASVVCLLNNFYPREAKVQWKVDNALQSGNSQESVTEQDSKDSTYSLSSTLTLSKADYEKHKVYACEVTHQGLSSPVTKSFNRGECHHHHHH
# heavy: QVQLVQSGAEVKKPGSSVKVSCKASGYTFTDYNMHWVRQAPGQGLEWIGYIYPYNGGTGYNQKFKSKATITADESTNTAYMELSSLRSEDTAVYYCARGRPAMDYWGQGTLVTVSSASTKGPSVFPLAPSSKSTSGGTAALGCLVKDYFPEPVTVSWNSGALTSGVHTFPAVLQSSGLYSLSSVVTVPSSSLGTQTYICNVNHKPSNTKVDKKVEPKSCHHHHHH
# notes: Lintuzumab-based Fab bridging molecule
# B2: CD33 BRIDGE variant B36 (Fab)
# light: DFPGHNYTTRNILPGLNITSTFHKTSGSGKGGGGSEPKSSDKTHTGGGGSDIQMTQSPSSLSASVGDRVTITCRASESVDNYGISFMNWFQQKPGKAPKLLIYAASNQGSGVPSRFSGSGSGTDFTLTISSLQPDDFATYYCQQSKEVPWTFGQGTKVEIKRTVAAPSVFIFPPSDEQLKSGTASVVCLLNNFYPREAKVQWKVDNALQSGNSQESVTEQDSKDSTYSLSSTLTLSKADYEKHKVYACEVTHQGLSSPVTKSFNRGECHHHHHH
# heavy: B1 heavy
# notes: as for B1
# B3: CD33 PURIFIED BRIDGE (Fab, V domains shown)
# VH: QVQLVQSGAEVKKPGSSVKVSCKASGYTFTDYNMHWVRQAPGQGLEWIGYIYPYNGGTGYNQKFKSKATITADESTNTAYMELSSLRSEDTAVYYCARGRPAMDYWGQGTLVTVSS
# VL: DIQMTQSPSSLSASVGDRVTITCRASESVDNYGISFMNWFQQKPGKAPKLLIYAASNQGSGVPSRFSGSGSGTDFTLTISSLQPDDFATYYCQQSKEVPWTFGQGTKVEIKR
# notes: also called old variant; original E200 CD33 Fab bridging molecule derived from lintuzumab
# B4: CD19 BRIDGE variant B1 (Fab, V domains shown)
# VH: EVQLVESGGGLVKPGGSLKLSCAASGYTFTSYVMHWVRQAPGKGLEWIGYINPYNDGTKYNEKFQGRVTISSDKSISTAYMELSSLRSEDTAMYYCARGTYYYGTRVFDYWGQGTLVTVSS
# VL: DIVMTQSPATLSLSPGERATLSCRSSKSLQNVNGNTYLYWFQQKPGQSPQLLIYRMSNLNSGVPDRFSGSGSGTEFTLTISSLEPEDFAVYYCMQHLEYPITFGAGTKLEIKR
# B5: CD19 BRIDGE variant B2 (Fab, V domains shown)
# VH: B4 VH
# VL: B4 VL
# B6: CD19 BRIDGE variant B3 (Fab, V domains shown)
# VH: B4 VH
# VL: B4 VL
# B7: CD19 BRIDGE variant B7 (Fab, V domains shown)
# VH: B4 VH
# VL: B4 VL
# B8: CD19 BRIDGE variant B4 (Fab)
# heavy: EVQLVESGGGLVKPGGSLKLSCAASGYTFTSYVMHWVRQAPGKGLEWIGYINPYNDGTKYNEKFQGRVTISSDKSISTAYMELSSLRSEDTAMYYCARGTYYYGTRVFDYWGQGTLVTVSSASTKGPSVFPLAPSSKSTSGGTAALGCLVKDYFPEPVTVSWNSGALTSGVHTFPAVLQSSGLYSLSSVVTVPSSSLGTQTYICNVNHKPSNTKVDKKVEPKSCHHHHHH
# light: GHNYTTRNILPGLNITSTFHKTSGSGKEPKSSDKTHTDIVMTQSPATLSLSPGERATLSCRSSKSLQNVNGNTYLYWFQQKPGQSPQLLIYRMSNLNSGVPDRFSGSGSGTEFTLTISSLEPEDFAVYYCMQHLEYPITFGAGTKLEIKRTVAAPSVFIFPPSDEQLKSGTASVVCLLNNFYPREAKVQWKVDNALQSGNSQESVTEQDSKDSTYSLSSTLTLSKADYEKHKVYACEVTHQGLSSPVTKSFNRGEC
# B9: CD19 BRIDGE variant B5 (Fab)
# heavy: B8 heavy
# light: GHNYTTRNILPGLNITSTFHKTSGSGKGSEPKSSDKTHTDIVMTQSPATLSLSPGERATLSCRSSKSLQNVNGNTYLYWFQQKPGQSPQLLIYRMSNLNSGVPDRFSGSGSGTEFTLTISSLEPEDFAVYYCMQHLEYPITFGAGTKLEIKRTVAAPSVFIFPPSDEQLKSGTASVVCLLNNFYPREAKVQWKVDNALQSGNSQESVTEQDSKDSTYSLSSTLTLSKADYEKHKVYACEVTHQGLSSPVTKSFNRGEC
# Target: T2, nfP2X7 CAR 1
# T2 construct: Expressed on T cells with truncated EGFR as marker gene; also called anti-nfP2X7 receptor CAR 1; nfP2X7 targeted CAR on EGFR+ T cells
# Experiment: flow cytometry, CAR T cells, anti-His-FITC, EGFR+ over EGFR- cells
# Method in brief: (§1)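 CAR T cells incubated with BRiDGE variants at saturating concentrations; bound BRiDGE detected with anti-His-FITC by flow cytometry. EGFR marks CAR expression. Value is median fluorescence intensity on EGFR+ (CAR+) cells divided by that on EGFR− (CAR−) cells.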
row,HisTag MFI Ratio of EGFR+/EGFR-,Binder
1,3.8,B1
2,3.3,B2
3,4,B3

# Target: T3, nfP2X7 CAR 1
# T3 construct: CAR-positive cells gated by the co-expressed EGFR marker; also called nfP2X7 targeted CAR; nfP2X7 CAR on EGFR+ T cells
# Experiment: flow cytometry, anti-His-FITC, MFI on EGFR+ (CAR+) over EGFR- (CAR-) T cells
# Method: (§2) nfP2X₇ CAR T cells were incubated with different BRiDGE variants at saturating concentrations. […] The MFI intensity correlates with the number of secondary bound antibodies bound to the BRiDGEs that are only detected if they are bound to the CAR T cells. EGFR was used as a marker gene to detect the CAR expression. Thus, the EGFR+ T cell population was defined as the CAR expressing cells and the EGFR− T cell population was defined as the CAR negative subset. MFI: median fluorescence intensity. EGFR: epidermal growth factor receptor. BLItz: Bio-Layer interferometry (BLI) technology using HIS-tag identification tips. HIS-tag MFI Ratio: relative index that is calculated by the testing condition MFI divided by the control MFI, which corresponds to the MFI measured on EGFR+ T cells (defined as CAR positive cells) divided by the MFI measured on the EGFR− T cells (defined as CAR negative cells). […] The higher the MFIR, the stronger the binding.
row,HisTag MFI Ratio of EGFR+/EGFR-,Binder
1,4,B4
2,4.1,B5
3,4.1,B6
4,4,B7
5,4.1,B8
6,4.2,B9

# Target: T3, nfP2X7 CAR 1
# Experiment: flow cytometry, nfP2X7 CAR 1 T cells (EGFR+ gate), anti-His-FITC detection
# Method: as §2
row,MFI HisTag FITC in EGFR+ Population,Binder
1,2.1,B4
2,2.07,B5
3,2.05,B6
4,2.22,B7
5,2.05,B8
6,2.08,B9

# Target: T4, CD33 (UniProt P20138 18-364, limits assumed)
# T4 construct: whole, on cells; also called Siglec-3; CD33 on MOLM-13 cells
# T4 sequence (P20138 18-364 limits assumed): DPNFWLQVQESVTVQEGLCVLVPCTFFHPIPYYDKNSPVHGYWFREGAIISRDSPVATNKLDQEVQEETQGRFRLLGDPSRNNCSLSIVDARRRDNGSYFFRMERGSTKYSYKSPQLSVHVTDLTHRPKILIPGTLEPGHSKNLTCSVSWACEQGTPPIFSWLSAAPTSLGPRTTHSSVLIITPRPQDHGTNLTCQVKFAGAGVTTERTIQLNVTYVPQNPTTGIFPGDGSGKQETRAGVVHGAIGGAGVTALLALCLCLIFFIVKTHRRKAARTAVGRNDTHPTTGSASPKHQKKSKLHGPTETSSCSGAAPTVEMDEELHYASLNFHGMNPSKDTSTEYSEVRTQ
# Experiment: flow cytometry, MOLM-13 cells, anti-His-FITC detection
# Method: (§3) MOLM-13 cells were incubated with different CD33 BRIDGE variants at saturating concentrations. […] The MFI intensity correlates with the number of secondary antibodies bound to the CD33 BRIDGE variants that are only detected if they are bound to the MOLM-13 cells. MFI: median fluorescence intensity. BLItz: Bio-Layer interferometry (BLI) technology using HIS-tag identification tips. […] The higher the MFIR, the stronger the binding.
row,MFI HisTag FITC,Binder
1,6.62,B1
2,6.72,B2
3,7.12,B3

# Target: T1, CD19
# Experiment: flow cytometry, JeKo-1 cells, bridge at saturating conc., BIL03s-AF647 detection
# Method: as §3, with “JeKo-1” for “MOLM-13”, “CD19 BRiDGE” for “CD33 BRIDGE”, “secondary bound” for “secondary”, “BLitz:” for “BLItz:”
row,MFI Bil03 AF647,Binder
1,3.19,B4
2,4.17,B5
3,5.43,B6
4,7.57,B7
5,9.02,B8
6,5.5,B9

# Target: T1, CD19
# Experiment: flow cytometry, JeKo-1 cells, bridge at saturating conc., anti-His-FITC detection
# Method: as §3, with “JeKo-1” for “MOLM-13”, “CD19 BRiDGE” for “CD33 BRIDGE”, “secondary bound” for “secondary”, “BLitz:” for “BLItz:”
row,MFI HisTag FITC,Binder
1,3.21,B4
2,3.47,B5
3,3.63,B6
4,3.31,B7
5,3.89,B8
6,3.4,B9

# Target: T3, nfP2X7 CAR 1
# Experiment: flow cytometry, anti-His-FITC, MFI on EGFR+ (CAR+) T cells over background 0.44
# Method: as §2
row,HisTag MFI Ratio (background 0.44),Binder
1,4.8,B4
2,4.7,B5
3,4.7,B6
4,5,B7
5,4.7,B8
6,4.7,B9

# Target: T2, nfP2X7 CAR 1
# Experiment: flow cytometry, CAR T cells, anti-His-FITC, EGFR+ MFI over background 0.4
# Method in brief: as §1
row,HisTag MFI Ratio (background 0.4),Binder
1,5.4,B1
2,4.1,B2
3,4,B3

# Target: T2, nfP2X7 CAR 1
# Experiment: flow cytometry, nfP2X7 CAR T cells (EGFR+), anti-His-FITC detection
row,MFI HisTag FITC in EGFR+ Population,Binder
1,2.15,B1
2,1.65,B2
3,1.58,B3

# Target: T1, CD19
# Experiment: flow cytometry, JeKo-1 cells, BIL03s-AF647 detection, MFI over no-bridge control
# Method: as §3, with “JeKo-1” for “MOLM-13”, “CD19 BRiDGE” for “CD33 BRIDGE”, “secondary bound” for “secondary”, “BLitz:” for “BLItz:”
row,MFIR BIL03 AF647,Binder
1,6.93,B4
2,9.07,B5
3,11.8,B6
4,16.5,B7
5,19.6,B8
6,12,B9

# Target: T4, CD33
# Experiment: flow cytometry, MOLM-13 cells, anti-His-FITC detection, ratio to no bridge
# Method: as §3
row,MFIR HisTag FITC,Binder
1,9.88,B1
2,10,B2
3,10.6,B3

# Target: T1, CD19
# Experiment: flow cytometry, JeKo-1 cells, anti-His-FITC detection, MFI over no-bridge control
# Method: as §3, with “JeKo-1” for “MOLM-13”, “CD19 BRiDGE” for “CD33 BRIDGE”, “secondary bound” for “secondary”, “BLitz:” for “BLItz:”
row,MFIR HisTag FITC,Binder
1,4.17,B4
2,4.51,B5
3,4.71,B6
4,4.3,B7
5,5.05,B8
6,4.42,B9
